Laboratory results as given in publication doi:10.1101/2021.03.23.436624 (bioRxiv, 2021).

B1: Sybody 21 (Sb21) (VHH)
VHH: QVQLVESGGGLVQAGGSLRLSCAASGFPVKYEHMYWYRQAPGKEREWVAAINSAGNETHYADSVKGRFTISRDNAKNTVYLQMNSLKPEDTAVYYCNVKDIGWWAAYDYWGQGTQVTV
B2: Neisseria gonorrhoeae LptD (NgLptD) (natural protein, UniProt Q5F651 24-801, looked up)
chain: ADTVAAEEADGRVAEGGAQGASESAQASDLTLGSTCLFCSNESGSPERTEAAVQGSGEASVPEDYTRIVADRMEGQSKVKVRAEGSVIIERDGAVLNTDWADYDQSGDTVTVGDRFALQQDGTLIRGETLTYNLDQQTGEAHNVRMETEQGGRRLQSVSRTAEMLGEGRYKLTETQFNTCSAGDAGWYVKAASVEADRGKGIGVAKHAAFVFGGVPLFYTPWADFPLDGNRKSGLLVPSVSAGSDGVSLSVPYYFNLAPNFDATFAPGIIGERGATFDGQIRYLRPDYSGQTDLTWLPHDKKSGRNNRYQAKWQHRHDISDTLQAGVDFNQVSDSGYYRDFYGGEEIAGNVNLNRRVWLDYGGRAAGGSLNAGLSVQKYQTLANQSGYKDEPYAIMPRLSADWHKNAGRAQIGVSAQFTRFSHDGRQDGSRLVVYPGIKWDFSNSWGYVRPKLGLHATYYSLDSFGGKASRSVGRVLPVVNIDGGTTFERNTRLFGGGVVQTIEPRLFYNYIPAKSQNDLPNFDSSESSFGYGQLFRENLYYGNDRINAANSLSTAVQSRILDGATGEERFRAGIGQKFYFKDDAVMLDGSVGKNPRSRSDWVAFASGGIGGRFTLDSSIHYNQNDKRAEHYAVGAGYRPAPGKVLNARYKYGRNEKIYLQADGSYFYDKLSQLDLSAQWPLTRNLSAVVRYNYGFEAKKPIEMLAGAEYKSSCGCWGAGVYAQRYVTGENTYKNAVFFSLQLKDLSSVGRNPAGRMDVAVPGYIPAHSLSAGRNKRP

Legend:
[1] = biological target: N. gonorrhoeae LptD (1-801)-3C-His10 and LptE (1-159)-AVI complex, biotinylated (Neisseria gonorrhoeae) (UniProt Q5F651); test: grating coupled interferometry
cryo-EM structure = biological target: the molecule itself; test: cryo-EM structure

Binder | Kd [1] [nM] | binding result (cryo-EM structure)
B1 | 10 | 
B2 |  | binds
